Columns and labels:
Type in all cases: biochemical
[1] = HTP-analysis of supernatants pretreated with acid (MUGal hydrolysis); conditions: challenge at pH 4.0; activity of the variant/activity of Rd3BB (SEQ ID NO: 13); yeast culture supernatant
Procedure, shortened: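 Supernatants from INVSc1 yeast secreting GLA variants were challenged at 37° C. for 1-3 h in McIlvaine buffer at pH 3.3-4.3. Residual activity was then measured on 4 mM MUGal substrate stock at pH 4.8 with citrate buffer pH 4.3, over 30-180 min at 37° C. Reactions were quenched with sodium carbonate and read by fluorescence (Ex 355/Em 448 nm).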

[2] = HTP-analysis of yeast culture supernatants, no challenge (MUGal hydrolysis); conditions: activity of the variant/activity of Rd3BB (SEQ ID NO: 13), yeast culture supernatant
Procedure, shortened: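 GLA variants expressed in yeast INVSc1, secreted into SD-Ura broth over 66-84 h at 30° C; clarified supernatants tested without challenge. Supernatant mixed with McIlvaine buffer pH 4.8 and 2 mM MUGal (citrate/KCl, pH 4.6), 37° C for 30-180 min, carbonate-quenched, fluorescence Ex 355/Em 448 nm.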

[3] = HTP-analysis of supernatants pretreated with base (MUGal hydrolysis); conditions: challenge at pH 8.2; activity of the variant/activity of Rd3BB (SEQ ID NO: 13); yeast culture supernatant
Procedure, shortened: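 GLA variants were secreted by transformed INVSc1 yeast grown 66-84 h at 30° C. Supernatants were exposed to neutral-to-basic buffers (pH 7.0-9.7) at 37° C for 1-18 h, then assayed with MUGal in acidic citrate/McIlvaine buffer, with fluorescence read after quenching.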

[4] = HTP-analysis of supernatants pretreated with bovine serum (MUGal hydrolysis); conditions: activity of the variant/activity of Rd3BB (SEQ ID NO: 13), yeast culture supernatant
Procedure, shortened: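 Yeast INVSc1 culture supernatants containing secreted GLA variants were mixed with bovine serum (20:80) and held 1 h at 37° C. Serum-treated samples then reacted with MUGal (4 mM stock) in citrate/McIlvaine buffer (pH 4.3/4.8) for 180 min at 37° C., were quenched with sodium carbonate, and read by fluorescence (Ex 355, Em 448 nm).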

Molecule | Relative Activity of GLA Variants After Challenge at pH 4.0 [1] | Relative Activity of GLA Variants After No Challenge (NC) [2] | Relative Activity of GLA Variants After Challenge at pH 8.2 [3] | Relative Activity of GLA Variants After Challenge with Serum [4]
359 (protein, Synthetic Polypeptide sequence of Variant No. 359 of mature Human GLA) LDNGLARTPTMGWLHWERFMCNLDCQEEPDSCISEKLFMEMAERMVSEGWKDAGYEYLCIDDCWMAPQRDSEGRLQADPQRFPHGIRQLANYVHSKGLKFGIYADVGNKTCAGFPGSFGYYDIDAQTFADWGVDLLKFDGCYCDSLENLADGYKHMSLALNRTGRSIVYSCEWPLYMWPFIKPNYTEIRQYCNHWRNFADIDDSWASIKSILDWTSFNQETIVDVAGPGGWNDPDMLVIGNFGLSWDQQVTQMALWAIMAAPLFMSNDLRHISPQAKALLQDKDVIAINQDPLGKQGYQLRKGDNFEVWERPLSGLAWAVAVINRQEIGGPRSYTIAVASLGKGVACNPACFITQLLPVKRKLGFYNWTSRLKSHVNPTGTVLLQLENTMQMSLKDLL | + (+ = 0.5 to 1.5 relative activity over Rd3BB (SEQ ID NO: 13)) | + (+ = 0.5 to 1.5 relative activity over Rd3BB (SEQ ID NO: 13)) | +++ (+++ = >2.5 relative activity over Rd3BB (SEQ ID NO: 13)) | + (+ = 0.5 to 1.5 relative activity over Rd3BB (SEQ ID NO: 13))
296 (protein, Synthetic Polypeptide sequence of Variant No. 296 of mature Human GLA) LDNGLARTPTMGWLHWERFMCNLDCQEEPDSCISEKLFMEMAELMVSEGWKDAGYEYLCIDDCWMTPQRDSEGRLQADPQRFPHGIRQLANYVHSKGLKLGIYADVGNKTCAGFPGSFGYYDIDAQTFADWGVDLLKFDGCYCDSLENLADGYKHMSLALNRTGRSIVYSCEWPLYMWPFQKPNYTEIRQYCNHWRNFADIDDSWASIKSILDWTSRNQERIVDVAGPGGWNDPDMLVIGNFGLSWNQQVTQMALWAIMAAPLFMSNDLRHISPQAKALLQDKDVIAINQDPLGKQGYQLRQGDNFEVWERPLSGDAWAVAIINRQEIGGPRSYTIPVASLGGGVACNPGCFITQLLPVKRKLGFYNWTSRLKSHINPTGTVLLQLENTMQMSLKDLL | − (− = <0.5 relative activity to Rd3BB (SEQ ID NO: 13)) | + (+ = 0.5 to 1.5 relative activity over Rd3BB (SEQ ID NO: 13)) | − (− = <0.5 relative activity to Rd3BB (SEQ ID NO: 13)) | + (+ = 0.5 to 1.5 relative activity over Rd3BB (SEQ ID NO: 13))
297 (protein, Synthetic Polypeptide sequence of Variant No. 297 of mature Human GLA) LDNGLARTPTMGWLHWERFMCNLDCQEEPDSCISEKLFMEMAELMVSEGWKDAGYEYLCIDDCWMAPQRDSEGRLQADPQRFPHGIRQLANYVHSKGLKLGIYADVGNKTCAGFPGSFGYYDIDAQTFADWGVDLLKFDGCYCDSLENLADGYKHMSLALNRTGRSIVYSCEWPLYMWPFQKPNYTEIRQYCNHWRNFADIDDSWASIKSILDWTSRNQERIVDVAGPGVWNDPDMLVIGNFGLSWDQQVTQMALWAIMAAPLFMSNDLRHISPQAKALLQDKDVIAINQDPLGKQGYQLRKGDNFEVWERPLSGLAWAVAIINRQEIGGPRSYTIAVASLGKGVACNPACFITQLLPVKRKLGFYNWSSRLKSHINPTGTVLLQLENTMQMSLKDLL | − (− = <0.5 relative activity to Rd3BB (SEQ ID NO: 13)) | − (− = <0.5 relative activity to Rd3BB (SEQ ID NO: 13)) | − (− = <0.5 relative activity to Rd3BB (SEQ ID NO: 13)) | − (− = <0.5 relative activity to Rd3BB (SEQ ID NO: 13))
298 (protein, Synthetic Polypeptide sequence of Variant No. 298 of mature Human GLA) LDNGLARTPTMGWLHWERFMCNLDCQEEPDSCISEKLFMEMAELMVSEGWKDAGYEYLCIDDCWMAPQRDSEGRLQADPQRFPHGIRQLANYVHSKGLKLGIYADVGNKTCAGFPGSFGYYDIDAQTFADWGVDLLKFDGCYCDSLENLADGYKHMSLALNRTGRSIVYSCEWPLYMWPFQKPNYTEIRQYCNHWRNFADIDDSWASIKSILDWTSRNQERIVDVAGPGGWNDPDMLVIGNFGLSWDQQVTQMALWAIMAAPLFMSNDLRHISPQAKALLQDKDVIAINQDPLGKQGYQLRQGDNFEVWERPLSGDAWAVAIINRQEIGGPRSYTIPVASLGKGVACNPGCFITQLLPVKRQLGFYNWTSRLKSHINPTGTVLLQLENTMQMSLKDLL | +++ (+++ = >2.5 relative activity over Rd3BB (SEQ ID NO: 13)) | ++ (++ = >1.5 to 2.5 relative activity over Rd3BB (SEQ ID NO: 13)) | +++ (+++ = >2.5 relative activity over Rd3BB (SEQ ID NO: 13)) | +++ (+++ = >2.5 relative activity over Rd3BB (SEQ ID NO: 13))
299 (protein, Synthetic Polypeptide sequence of Variant No. 299 of mature Human GLA) LDNGLARTPTMGWLHWERFMCNLDCQEEPDSCISEKLFMEMAELMVSEGWKDAGYEYLCIDDCWMAPQRDSEGRLQADPQRFPHGIRQLANYVHSKGLKLGIYADVGNKTCAGFPGSFGYYDIDAQTFADWGVDLLKFDGCYCDSLENLADGYKHMSLALNRTGRSIVYSCEWPLYMWPFQKPNYTEIRQYCNHWRNFADIDDSWASIKSILDWTSRNQERIVDVAGPGGWNDPDMLVIGNFGLSWDQQVTQMALWAIMAAPLFMSNDLRHISPQAKALLQDKDVIAINQDPLGKQGYQLRKGDNFEVWERPLSGLAWAVAIINRQEIGGPRSYTIAVASLGGGVACNPGCFITQLLPVKRKLGFYTWTSRLKSHINPTGTVLLQLENTMQMSLKDFL | − (− = <0.5 relative activity to Rd3BB (SEQ ID NO: 13)) | + (+ = 0.5 to 1.5 relative activity over Rd3BB (SEQ ID NO: 13)) | − (− = <0.5 relative activity to Rd3BB (SEQ ID NO: 13)) | − (− = <0.5 relative activity to Rd3BB (SEQ ID NO: 13))

Reference: US11278600B2, “Human alpha-galactosidase variants” (Codexis, Inc., priority 2014, dated 2022)
